# Laboratory results published in the supplement of paper PMC12855868.
# B1: library; numbered along this chain (parent)
# chain: MAAAGGARLLRAASAVLGGPAGRWLHHAGSRAGSSGLLRNRGPGGSAEASRSLSVSARARSSSEDKITVHFINRDGETLTTKGKVGDSLLDVVVENNLDIDGFGACEGTLACSTCHLIFEDHIYEKLDAITDEENDMLDLAYGLTDRSRLGCQICLTKSMDNMTVRVPETVADARQSIDVGKTS
# Variants of: B1
# Assay: scaled log2 fold change in cell abundance, elesclomol vs control (0 = silent mean, 1 = nonsense mean) (scaled log2 ratio); higher = higher viability under elesclomol (loss of FDX1 cuproptosis function)
# Conditions: glucose 10 mM
# [1] = with ABC1 FDX1 KO, elesclomol 5 nM, 14 days
# [2] = with HEK293T FDX1 KO, elesclomol 40 nM, 11 days
# 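Further: variant abundance is its share of total variant reads in each endpoint sample, from next-generation sequencing of the integrated ORF PCR-amplified out of genomic DNA.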
Variant,scaled log2 fold change [1],scaled log2 fold change [2]
L89M,0.256,0.404
L89V,0.313,-0.151
L89K,1.05,1.47
L89C,-0.261,0.257
L89S,1.06,0.924
L89P,0.89,0.172
L89T,-0.121,-0.104
L89Y,0.534,0.223
L89F,0.706,0.454
L89H,1.34,0.109
L89D,1.11,1.26
L89W,0.552,1.33
L89R,1.16,0.853
L89N,1.2,0.434
L89Q,1.64,0.508
L89E,0.919,0.768
L89G,0.853,0.301
L89A,-0.0423,
S88I,0.199,
S88T,-0.996,-0.234
S88C,0.057,1.32
S88N,0.582,
S88A,0.0293,0.31
S88F,0.301,

Variant,scaled log2 fold change [1],scaled log2 fold change [2]
S88E,0.289,0.37
S88G,0.17,0.309
S88L,0.0552,
S88W,0.356,-0.287
S88Q,0.191,-0.766
S88V,-0.223,0.0665
D91M,-0.119,-1.37
D91F,0.29,-0.219
D91H,-0.00925,-0.865
D91R,-0.658,-0.752
D91G,0.216,0.254
D91L,0.217,-0.127
D91T,0.169,
D91W,0.0916,-0.265
D91Q,-1.31,-0.476
D91N,0.109,-0.0567
D91P,0.307,0.179
D91S,-0.972,0.774
D91Y,-0.0508,0.728
D91E,-0.0305,1.04
D91V,-0.017,0.747
D91K,-0.39,-0.0722
D91C,0.188,0.246
D91I,0.418,-0.331

Variant,scaled log2 fold change [1],scaled log2 fold change [2]
V93S,0.115,-0.534
V93G,0.574,-0.293
V93M,0.416,0.244
V93P,0.924,0.209
V93R,0.275,0.16
V93K,-0.498,
V93W,0.155,0.488
V93I,0.123,-0.612
V93T,-0.217,-0.372
V93A,-0.15,1.27
V93L,0.0816,0.422
V93Y,-0.0809,1.12
V93Q,0.0948,-0.698
V93E,0.231,-0.85
V93D,0.877,0.496
V93H,-0.124,-0.875
V93N,0.524,0.217
V93C,-0.0745,0.258
V93F,0.266,-0.377
L90D,0.478,0.245
L90V,-0.0886,-0.208
L90H,-0.379,1.81
L90I,-0.268,0.924
L90Y,-0.103,

Variant,scaled log2 fold change [1],scaled log2 fold change [2]
L90W,-0.148,0.134
L90N,0.293,-0.049
L90P,0.597,0.277
L90G,0.46,0.288
L90R,-0.127,-0.461
L90Q,-0.132,-0.0146
L90S,-1,0.27
L90T,-0.871,-0.404
L90K,0.0261,
L90A,-0.423,
L90E,0.187,0.205
L90C,0.079,0.931
L90F,0.00898,-0.179
L90M,-0.268,-0.239
V94M,-0.224,1.17
V94Y,-0.0972,0.515
V94S,-0.223,-1
V94W,0.0681,0.96
V94P,0.617,0.378
V94G,-0.377,
V94A,0.0221,0.0839
V94D,-0.313,
V94Q,0.235,-0.226
V94R,-0.258,1

Variant,scaled log2 fold change [1],scaled log2 fold change [2]
V94C,-0.491,0.199
V94T,-0.0231,
V94L,0.0554,-0.336
V94H,-0.328,0.317
V94I,-0.52,0.00216
V94K,-0.573,-0.482
V94F,-0.376,-0.411
V94E,0.00926,-0.058
V94N,-0.345,-1.27
N96H,0.245,
N96R,0.204,-0.0627
N96F,0.145,-0.464
N96G,0.111,0.179
N96S,-0.155,-0.272
N96W,-0.0659,-0.145
N96E,0.241,-0.435
N96P,0.423,-0.187
N96C,-0.324,-0.592
N96V,0.307,0.567
N96A,-0.307,1.03
N96Y,-0.25,-0.153
N96D,0.104,0.22
N96Q,-0.22,0.0675
N96M,0.283,-0.778
